The values below come from the supplement of paper PMC12042874.

± gives the uncertainty stated by the source.

This data set can be described thus: amyloid nucleation score (Sup35N fusion, yeast selection) (log enrichment); library NNK2; higher = more nucleation; inactive = no reads after selection. In short, it runs like this: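 Output and input plasmid inserts were sequenced by Illumina after psi-negative yeast carrying Sup35N fused to peptides of 20 random codons had been induced 24 hours with 100 μM copper sulfate and grown 7 days at 30°C on medium lacking adenine and uracil. The nucleation score is the DiMSum log enrichment of output over input reads, centred on the mode score of non-aggregating sequences. Sequences with under 100 input reads were excluded.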

In the case of VSQSDMDLHWLVYRVYWYVF, the amyloid nucleation score is -0.893 ± 0.44.

EYIYTIGYGL: the amyloid nucleation score entry was “inactive”.

The substance SYCLDDMRPWLHESTLSLSM gave an amyloid nucleation score of -0.033 ± 0.3.

In the case of MYILMKDIRDFIFSSRPIIS, the amyloid nucleation score entry was “inactive”.

Consider RHLDSDPRIRKPHFGDPVNT, for which the amyloid nucleation score is -0.144 ± 0.55.

On to QGLSCEGILWLVEYSQTFFG, for which the amyloid nucleation score was -1.27 ± 1.1.

Consider RSVSNDKYVFWFLRLVDVKA, for which the amyloid nucleation score was found to be 0.225 ± 0.26.

For the substance ASAVV, the amyloid nucleation score came to 0.402 ± 0.26.

Substance FGGINIGCGQCLFVVR showed an amyloid nucleation score of 8.503 ± 0.053.

As for AKFMGLCRDKGLQLC, the amyloid nucleation score was -0.331 ± 0.55.

Substance RHTSNTIIDELFLDSMGWHN displayed an amyloid nucleation score of 9.016 ± 0.05.

As for GLWLRFVCSIYFLMYIVHIN, the amyloid nucleation score entry is “inactive”.

LRSVKMIRCLNSSLPLNGRG came in with an amyloid nucleation score of 0.735 ± 0.12.

As for SHMSHYRNSSTDFAA, the amyloid nucleation score was -0.745 ± 0.42.

Take SLSLGLSSCEPYYAVC: the amyloid nucleation score is -0.276 ± 0.28.

Substance KFCVRVYNYIVDRITSLMKT registered an amyloid nucleation score of 3.22 ± 0.067.

Regarding YANVA, the amyloid nucleation score was -1.65 ± 0.75.

With FPGRFRGKSLEKRMVM, the amyloid nucleation score is 0.721 ± 0.46.

Turning to SALIF, the amyloid nucleation score turned out to be 0.115 ± 1.

THDKLHFLAFVFSPLFLTTM: the amyloid nucleation score result was “inactive”.

In turn, EWLIAW returned an amyloid nucleation score of 1.29 ± 0.25.

EWSVWRSAKWQFQARNGMQG gave an amyloid nucleation score of 2.05 ± 0.48.

As to MFSIYSGYIVKQC, the amyloid nucleation score amounted to 0.336 ± 0.74.

Regarding AKVACKDGLHACESESGFIW, the amyloid nucleation score was 1.54 ± 0.3.

PMKLTILDTNGCNINRAPFS displayed an amyloid nucleation score of -1.02 ± 1.1.

Consider STTVTLGQSICFYLSCGLRD, for which the amyloid nucleation score amounted to 9.214 ± 0.051.

VHVYVGQKWSGGVLSLACYK had an amyloid nucleation score of 1.09 ± 0.35.

In turn, DDIFNWFGVLGSNPLMVSVG yielded an amyloid nucleation score of 0.811 ± 0.33.

The substance TLQMGQSMPSFFGLRWAVYR had an amyloid nucleation score of 0.503 ± 0.43.

QLYLTVTNGFVRCTTASDVL came in with an amyloid nucleation score of 1.14 ± 0.47.

The substance IGYVEAWWVFLVGSDAVRAP registered an amyloid nucleation score of -0.018 ± 1.1.

As for LAGCSMSGVVEC, the amyloid nucleation score is 1.13 ± 0.22.

As to CMFLFYVKYLNVHSGGLIML, the amyloid nucleation score result is “inactive”.

Consider RYMRFYRLAGPAVLRFHLR, for which the amyloid nucleation score result is “inactive”.

Turning to FAKFQGSKISPVSHTSLLST, the amyloid nucleation score result was “inactive”.

For HCMLEYRMIVCVLVYAGYNM, the amyloid nucleation score is 0.448 ± 0.47.

As for KGYGIHFCFRCMDSRCGVS, the amyloid nucleation score was 0.97 ± 0.28.

Regarding MSLVSRNSTSKHLNIVFSLI, the amyloid nucleation score was found to be 5.057 ± 0.045.

Turning to GNYNLALDLPLTFERFRQSH, the amyloid nucleation score was -0.736 ± 0.44.

For the substance QLALLMFMQTFNSYS, the amyloid nucleation score was found to be 7.43 ± 0.059.

For DNMWV, the amyloid nucleation score came out at 0.388 ± 0.54.

In turn, CRVCRNWIWGTLSSGVTSRL yielded an amyloid nucleation score of -0.61 ± 0.49.

RARFHFVKTCSTQRSMPHMG returned an amyloid nucleation score of 3.21 ± 0.073.

On to YYKKTVVPYRLYAGLELIAT, for which the amyloid nucleation score was -0.607 ± 0.48.

Take FRCLTSSANISISTVWYVGH: the amyloid nucleation score was determined as 4.61 ± 0.09.

AGMGRSVWSKRFRDISRVSS yielded an amyloid nucleation score of 0.511 ± 0.56.

In the case of YQGSLGSDMAISKLFDSDYE, the amyloid nucleation score was -0.656 ± 1.1.

AETTFNIENDKTYIIYDCAE: the amyloid nucleation score is -0.161 ± 0.39.

Take DTCYVTTYVWWKTLCPVGLV: the amyloid nucleation score is 1.72 ± 0.31.

On to HIICSRHSNEAKLRMKSKAI, for which the amyloid nucleation score was -1.03 ± 0.61.

Consider YNKGWR, for which the amyloid nucleation score result was “inactive”.

Substance INFTYMGVMIFLSLLRQTWG came in with an amyloid nucleation score of -0.311 ± 0.56.

Substance LRLVYISTMIQMPFGRRVF registered an amyloid nucleation score of 3.73 ± 0.04.

Substance QFDTPNTT showed an amyloid nucleation score of -0.169 ± 0.54.

In turn, YHSTTLTFERAQPSHNNTRL returned an amyloid nucleation score of 3.32 ± 0.1.

In turn, PEFICYCANSACDWSTYCIG returned an amyloid nucleation score of 7.356 ± 0.036.

As to GPWGGWSVT, the amyloid nucleation score entry was “inactive”.

Regarding ADIAYFRLVMLKHTIYPVHM, the amyloid nucleation score came out at 1.82 ± 0.27.

The substance YTFGTNWVCW had an amyloid nucleation score of 3.6 ± 0.062.

Regarding WFSLFLPPVSSKRQPADEMA, the amyloid nucleation score was -0.317 ± 1.1.

Regarding PAHVSYILSLCLINVC, the amyloid nucleation score is 4.34 ± 0.072.

Turning to RYLSLVFVYIVGVLYSSCDV, the amyloid nucleation score was determined as 0.383 ± 0.14.

In turn, FDYVLSGICIPLKSIGVSFG gave an amyloid nucleation score of 8.385 ± 0.053.

TLSCSYVCAPTVYVQSSRPT displayed an amyloid nucleation score of 1.27 ± 0.18.

Substance MVNGEVTLGAVCNTYQWACI yielded an amyloid nucleation score of 2.66 ± 0.15.

WSFHRR yielded an amyloid nucleation score of -0.552 ± 0.36.

As to NCCEMNVLYLSIRLLFHVTA, the amyloid nucleation score amounted to 1.58 ± 0.097.

SCSMLVRDDIIIEPDCLLGV returned an amyloid nucleation score of 0.45 ± 0.74.

For SLYCGGQMLD, the amyloid nucleation score result is “inactive”.

In turn, YFNPI displayed an amyloid nucleation score of 5.196 ± 0.047.

Substance SVVVWDSSPCIGGSRVADS registered an amyloid nucleation score of 0.56 ± 0.57.

With FEFMNDFQSYVRMFRCLVFL, the amyloid nucleation score is -0.401 ± 0.43.

Substance MVPVFTGWRICVGGNCLARR returned an amyloid nucleation score of -0.162 ± 0.34.

The substance CNNSVGVFYKGLTELLCLRS yielded an amyloid nucleation score of -0.986 ± 1.1.

For HYYIHSFNMYPVGSRLVPYE, the amyloid nucleation score was -0.065 ± 0.42.

TPTGSVLAYRVTISTKVVSL gave an amyloid nucleation score of 1.09 ± 0.38.

On to QWIAGVYV, for which the amyloid nucleation score was 3.23 ± 0.048.

TVSNR came in with an amyloid nucleation score of -1.27 ± 0.37.

EVHHNGM came in with an amyloid nucleation score of 0.367 ± 0.62.

KFNILPKLWMDICMIYLAVY gave an amyloid nucleation score of -1.33 ± 0.49.

In turn, AYMVEWEENHSESSVA displayed an amyloid nucleation score of -0.383 ± 1.

The substance RYIVILSFVRGSWLYFLTRT displayed an amyloid nucleation score of -0.543 ± 0.5.

With YSSFDISLYFGNHHWSLMTR, the amyloid nucleation score was 4.11 ± 0.078.

In turn, VWVCSRTGQSQYIISYTALW showed an amyloid nucleation score of 1.65 ± 0.2.

The substance NTSFFDGTFLY had an amyloid nucleation score of 0.598 ± 0.57.

RRTVQWVWAVYIV: the amyloid nucleation score is -0.803 ± 0.45.

Substance CMIIKGCTVWVVRP showed an amyloid nucleation score of 9.469 ± 0.055.

For SMNVDTPCSGRWV, the amyloid nucleation score was -0.249 ± 1.1.

On to VIRSSFFFSLELSSREEFGY, for which the amyloid nucleation score is -0.817 ± 0.74.

Consider VAWVYSVLKCVSGLVG, for which the amyloid nucleation score is -0.013 ± 0.4.

With DGCDNYDSRESKTLFMRMMW, the amyloid nucleation score amounted to 1.11 ± 0.43.

The substance LDVIDGYWTGRMTSSFSWMN gave an amyloid nucleation score of 0.679 ± 0.47.

Turning to MSLCGYNYI, the amyloid nucleation score result was “inactive”.

Regarding VKLPITGIERLLEARQGDQW, the amyloid nucleation score was found to be 0.757 ± 0.39.

FYKLVAGNLANPCANRTCYL showed an amyloid nucleation score of -0.031 ± 1.

The substance GFSSNLVVLKKPS displayed an amyloid nucleation score of -0.249 ± 1.1.

In turn, TTVSWENGSRVINIVFILMF showed an amyloid nucleation score of 5.045 ± 0.04.

In turn, VRGRVAHRRMGSTFVISAES returned an amyloid nucleation score of 0.266 ± 0.74.

GCLLRCDKRGGLRPSW: the amyloid nucleation score is 0.66 ± 0.24.

Substance IYFYCGRCVSVFVHSFGMGL showed an amyloid nucleation score of 4.21 ± 0.05.

In the case of HRYISNISKYESKNWRVPVG, the amyloid nucleation score entry was “inactive”.

FGCSVNRKILVLMFVNVISV: the amyloid nucleation score was -0.627 ± 0.39.

The substance DVSSPVPGRGQCCVDGCWEF showed an amyloid nucleation score of 6.153 ± 0.059.

Substance NASLYVSYGM gave an amyloid nucleation score of 1.5 ± 0.39.

With WSLDSYSMTAVF, the amyloid nucleation score is -0.467 ± 0.39.

As to DLWGTMKFNF, the amyloid nucleation score result is “inactive”.

Take VYEVNGLSAGRMMSICNRRN: the amyloid nucleation score was -0.467 ± 0.44.

The substance LCLEAWERRCI came in with an amyloid nucleation score of -0.588 ± 0.17.

On to KTISNYVAGN, for which the amyloid nucleation score result was “inactive”.

In the case of NLNFPMRSSILDCAGDNVRR, the amyloid nucleation score is 0.49 ± 0.8.

HRRVCLDAYTFTFLNMVLAW displayed an amyloid nucleation score of -0.187 ± 0.65.

Substance ETVGYN had an amyloid nucleation score of 0.284 ± 1.1.

For SLPIWVRSRVEGLQERISWL, the amyloid nucleation score came to 0.364 ± 0.5.

In the case of IGLDRWLMSLRRYAMHK, the amyloid nucleation score was -0.089 ± 0.18.

Regarding YFTNFWLLCLLSG, the amyloid nucleation score is 4.34 ± 0.079.

On to DALDTRKLYN, for which the amyloid nucleation score entry is “inactive”.

On to LLATSWSVLEDLYAGNDLYD, for which the amyloid nucleation score entry is “inactive”.

As to GEMYV, the amyloid nucleation score is -0.31 ± 1.

As for MFLFGASLRIIRVVLTYELL, the amyloid nucleation score result was “inactive”.

For the substance ALWFLLKQSGARYLDLAIPG, the amyloid nucleation score was -0.06 ± 1.1.

As to EGWTWGGRLNKAQILTECVL, the amyloid nucleation score was found to be 1.49 ± 0.38.

In turn, ASDVSRVGVGRKMIFSFVRL came in with an amyloid nucleation score of -0.031 ± 1.

As to EFYFSVRPVKLCFGLNVTNN, the amyloid nucleation score was -0.146 ± 1.

Turning to SHIDMFAQECYLCFANVHRR, the amyloid nucleation score turned out to be 2.78 ± 0.21.

For MIASIGLDCEHVM, the amyloid nucleation score was found to be 0.841 ± 0.5.

As to VSLLFTPTNEYIWGTPLALR, the amyloid nucleation score result is “inactive”.

In the case of SQSMNGRQMHLYDRPSTGWF, the amyloid nucleation score entry is “inactive”.

For the substance ALPVLIINERTRWGVTLLLP, the amyloid nucleation score came to 0.421 ± 0.39.

Consider WVCHVNMRSEYMDIIMEGTN, for which the amyloid nucleation score result is “inactive”.

WLTSS yielded an amyloid nucleation score of -0.173 ± 0.54.

In turn, GVVGSFPRPTSSRGRLDYCN gave an amyloid nucleation score of -0.169 ± 0.55.

With NIAWTVDRYRKGSARGV, the amyloid nucleation score was found to be 1.17 ± 0.23.

For the substance RFCWICCHVQFFYELHITHA, the amyloid nucleation score entry was “inactive”.

On to GFVTDFIIKSI, for which the amyloid nucleation score is -1.07 ± 0.64.

In the case of WLVRLVIGGFTQSGMWLTEI, the amyloid nucleation score was determined as 1.06 ± 0.16.

In turn, LAQWLTRLYAK registered an amyloid nucleation score of 1.12 ± 0.4.

GSDFQFRSSATVLSAVEFLL: the amyloid nucleation score is -0.227 ± 0.35.

Take YKISDRVALISYPNFAIVWT: the amyloid nucleation score was -2.25 ± 0.78.
